Measurements published in CN108546297A (ACAD OF MILITARY SCIENCES PLA CHINA ACAD OF MILITARY …, dated 2018).

Tests used:
CD28/Fc = target: T1, CD28/Fc (UniProt P10747 19-152); test: indirect ELISA, antigen coated at 1 μg/mL, goat anti-human F(ab')2-HRP
T1 construct: not shown: Fc part of the fusion

CTLA4/Fc = target: T2, CTLA4/Fc (UniProt P16410 36-162, limits assumed); test: as above
T2 construct: not shown: Fc part of the fusion
T2 sequence (looked up): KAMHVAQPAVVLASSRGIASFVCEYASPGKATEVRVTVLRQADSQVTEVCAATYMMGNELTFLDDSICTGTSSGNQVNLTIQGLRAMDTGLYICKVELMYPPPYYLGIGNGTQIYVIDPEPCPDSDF

BTLA/Fc = target: T3, BTLA/Fc (UniProt Q7Z6A9 31-157, limits assumed); test: as above
T3 construct: not shown: Fc part of the fusion
T3 sequence (looked up): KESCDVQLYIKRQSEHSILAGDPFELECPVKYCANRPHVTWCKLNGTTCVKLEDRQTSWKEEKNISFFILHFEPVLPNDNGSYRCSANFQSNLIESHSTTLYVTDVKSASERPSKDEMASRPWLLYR

ICOS/Fc = target: T4, ICOS/Fc (UniProt Q9Y6W8 21-141); test: as above
T4 construct: not shown: Fc part of the fusion
T4 sequence (looked up): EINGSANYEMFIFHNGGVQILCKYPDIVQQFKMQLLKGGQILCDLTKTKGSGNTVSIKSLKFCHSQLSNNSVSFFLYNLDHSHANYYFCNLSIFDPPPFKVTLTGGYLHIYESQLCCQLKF

PD-1/Fc = target: T5, PD-1/Fc (UniProt Q15116 25-167); test: Biacore SPR: antibody captured by anti-human Fab on a CM5 chip, PD-1/Fc as analyte
T5 construct: also called PD-1/Fc抗原; PD-1/Fc融合蛋白; not shown: Fc part of the fusion
T5 sequence (Q15116 25-167 limits assumed): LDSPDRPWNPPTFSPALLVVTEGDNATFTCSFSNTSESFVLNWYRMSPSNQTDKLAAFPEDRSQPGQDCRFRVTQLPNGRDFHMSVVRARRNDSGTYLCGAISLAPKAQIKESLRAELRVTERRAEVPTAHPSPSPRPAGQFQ

T1 sequence (P10747 19-152 limits assumed): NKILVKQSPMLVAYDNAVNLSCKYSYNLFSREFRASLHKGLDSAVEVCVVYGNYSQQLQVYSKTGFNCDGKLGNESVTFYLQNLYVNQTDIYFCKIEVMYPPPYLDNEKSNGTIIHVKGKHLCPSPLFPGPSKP

binding result (CD28/Fc): no binding (tested: antibody at 1 μg/mL)
binding result (CTLA4/Fc): no binding (tested: antibody at 1 μg/mL)
binding result (BTLA/Fc): no binding (tested: antibody at 1 μg/mL)
binding result (ICOS/Fc): no binding (tested: antibody at 1 μg/mL)
Kd (PD-1/Fc): 0.328 nM
koff (PD-1/Fc): 9.6e-05 s⁻¹
kon (PD-1/Fc): 292000 M⁻¹ s⁻¹
B1: 本发明制备的抗PD-1抗体 (anti-PD-1 monoclonal antibody of the invention) (antibody, V domains shown)
VH: QVQLVESGGGVVQPGRSLRLNCKASGITFSNSGMHWVRQAPGKGLEWVAVIWYDGSKLYYADSVKGRFTISRDNSKNTLFLQMNSLRAEDTAVYYCATDSDYWGQGTLVTVSS
VL: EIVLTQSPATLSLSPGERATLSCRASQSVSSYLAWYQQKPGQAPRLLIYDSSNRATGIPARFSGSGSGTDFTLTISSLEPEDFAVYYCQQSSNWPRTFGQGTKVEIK
notes: Variable regions cloned into the full-length antibody vector PRT/KIgG1 (IgG1 heavy constant region CH1-CH2-CH3, kappa light constant region); also called 本发明制备抗体
